Our source for the EC50 (read off the curve) values is patent publication US20190016816A1.

The assay deals with FcγRIIa (CD32a His131) (UniProt P12318). Briefly: flow cytometry, CHO cells stably expressing CD32a His131, fluorescent anti-human IgG secondary, MFI (mean).
Chain of FcγRIIa (CD32a His131) (P12318 34-317 limits assumed): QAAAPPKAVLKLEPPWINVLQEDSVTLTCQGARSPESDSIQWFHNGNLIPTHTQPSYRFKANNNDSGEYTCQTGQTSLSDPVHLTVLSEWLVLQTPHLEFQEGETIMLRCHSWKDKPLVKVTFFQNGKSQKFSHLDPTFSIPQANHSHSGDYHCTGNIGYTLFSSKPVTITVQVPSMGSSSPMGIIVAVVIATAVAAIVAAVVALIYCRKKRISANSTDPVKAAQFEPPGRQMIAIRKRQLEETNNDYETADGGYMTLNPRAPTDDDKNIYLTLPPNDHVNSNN

In the case of control human IgG1 molecule (antibody), the EC50 (read off the curve) was 9 nM.

A word on the EC50 (read off the curve): it is the concentration needed to bring the measured effect to its halfway point.
